Laboratory results as given in paper PMC8251803.

Target: cytochrome c oxidase from Aquifex aeolicus (AaCcO), protomer of subunits CoxA2, CoxB2 and IIa (Aquifex aeolicus) (UniProt O67937)
Assay: cryo-EM structure; single-particle cryo-EM with 3D classification (RELION) of the sample purified from native A. aeolicus membranes by anion exchange and size-exclusion chromatography; fractions with a dominant band around 242 kDa in Blue Native PAGE; two classes of particles (dimeric complex III, dimeric AaCcO); AaCcO dimer at 3.4 Å

## cytochrome c oxidase from Aquifex aeolicus (AaCcO), protomer of subunits CoxA2, CoxB2 and IIa (from UniProt O67937 1-592) (complex)
  stoichiometry N: 2
